# Measurements published in PMC5384396 (Oncoimmunology, 2017).
# T1: hGITR on hGITR-transfected Jurkat cells (human, UniProt Q9Y5U5 26-241)
# T1 sequence: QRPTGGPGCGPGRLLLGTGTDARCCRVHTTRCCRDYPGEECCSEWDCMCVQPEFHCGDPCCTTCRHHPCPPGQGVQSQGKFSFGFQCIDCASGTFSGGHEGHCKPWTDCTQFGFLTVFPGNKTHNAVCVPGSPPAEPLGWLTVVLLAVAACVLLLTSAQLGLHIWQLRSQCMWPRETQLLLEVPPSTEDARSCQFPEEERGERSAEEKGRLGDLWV
# B1: hGITRL FP with the yeast GCN4 pII trimerization domain (Fc fusion)
# chain: not shown
# Key:
# [1] = target: T1, hGITR on hGITR-transfected Jurkat cells; assay: cell-based or functional assay
# [2] = target: the molecule itself
binder,measurement,setting,value
B1,"NFκB-luciferase reporter in hGITR-transfected Jurkat cells, agonism EC50",[1],0.89 nM
same,stoichiometry N,[2],6
